B1: FtsZ (purified, WT) [E. coli] / ZapD (purified) [E. coli] (parent)
chain 1: MQTQVLFEHPLNEKMRTWLRIEFLIQQLTVNLPIVDHAGALHFFRNVSELLDVFERGEVRTELLKELDRQQRKLQTWIGVPGVDQSRIEALIQQLKAAGSVLISAPRIGQFLREDRLIALVRQRLSIPGGCCSFDLPTLHIWLHLPQAQRDSQVETWIASLNPLTQALTMVLDLIRQSAPFRKQTSLNGFYQDNGGDADLLRLNLSLDSQLYPQISGHKSRFAIRFMPLDTENGQVPERLDFELACC
chain 2: MFEPMELTNDAVIKVIGVGGGGGNAVEHMVRERIEGVEFFAVNTDAQALRKTAVGQTIQIGSGITKGLGAGANPEVGRNAADEDRDALRAALEGADMVFIAAGMGGGTGTGAAPVVAEVAKDLGILTVAVVTKPFNFEGKKRMAFAEQGITELSKHVDSLITIPNDKLLKVLGRGISLLDAFGAANDVLKGAVQGIAELITRPGLMNVDFADVRTVMSEMGYAMMGSGVASGEDRAEEAAEMAISSPLLEDIDLSGARGVLVNITAGFDLRLDEFETVGNTIRAFASDNATVVIGTSLDPDMNDELRVTVVATGIGMDKRPEITLVTNKQVQQPVMDRYQQHGMAPLTQEQKPVAKVVNDNAPQTAKEPDYLDIPAFLRKQAD
B2: FtsZ (purified, WT) [E. coli] / itself (parent)
chain: B1 chain 2

Variants of B1 are the subject of experiment [1]. The experiment can be described thus: co-sedimentation assay, SDS-PAGE quantification. The settings on record: with ZapD (purified) [E. coli]; 5 µM FtsZ with ZapD at 1:1; 50 mM K-MOPS pH 6.5, 50 mM KCl, 2.5 mM MgCl2, 1 mM GTP, 3 µM BSA; read off a plot.
The variants in the experiment “itself” derive from B2. Put plainly: sedimentation (co-pelleting) assay, SDS-PAGE quantification. The following applies: with itself, 50 mM K-MOPS pH 6.5, 50 mM KCl, 2.5 mM MgCl2, 1 mM GTP, 3 µM BSA, read off a plot.

Regarding chain 2 K380D D383K, the response (% ZapD in pellet) in experiment [1] is 49.
Take chain 1 K380D D383K: the response (% FtsZ in pellet) in the experiment with itself (5 µM FtsZ with ZapD at 1:0.2) came to 43; in the experiment with itself (5 µM FtsZ with ZapD at 1:1), 64; with itself (5 µM FtsZ, no ZapD), 23.
For chain 1 K380R D383R, in that order: 39, 50 and 23.
For chain 1 D383K, in that order: 45, 66 and 27.
The like results for chain 1 K380D were, in that order, 29, 41 and 27.
Consider chain 1 K380Q A382Q D383Q, for which the response (% FtsZ in pellet) came to 43 in the experiment with itself (5 µM FtsZ with ZapD at 1:0.2); 69 in the experiment with itself (5 µM FtsZ with ZapD at 1:1); 24 with itself (5 µM FtsZ, no ZapD).
